Source: US20160223529

B1: TVMV-PDZ^dom with C-terminal HCV-inducible AI-domain (protein)
chain: SGGSGGSMEIRVRVEKDPELGFSISGGVGGRGNPFRPDDDGIFVTRVQPEGPASKLLQPGDKIIQANGYSFINIEHGQAVSLLKTFQNTVELIIVREVSSGGRGGSGGSGGSGGSGGSGGSSKALLKGVRDFNPISACVCLLENSSDGHSERLFGIGFGPYIIANQHLFRRNNGELTIKTMHGEFKVKNSTQLQMKPVEGRDIIVIKMAKDFPPFPQKLKFRQPTIKDRVCMVSTNFQQKSVSSLVSESSHIVHKEDTSFWQHWITTKDGQCGSPLVSIIDGNILGIHSLTHTTNGSNYFVEFPEKFVATYLDAADGWCKNWKFNADKISWGSFILWEDAPESGGDEMEECASHLGSGREYVRFAPGSTHHHHHH
B2: HCV-SH3^dom with C-terminal TVMV-inducible AI-domain (protein)
chain: SMSTSGSGGAEYVRALFDFNGNDEEDLPFKKGDILRIRDKPEEQWWNAEDSEGKRGMIPVPYVEKYRPASASVSALIGGRGGSGGSGGSGGSGGSGGSAKGSVVIVGRINLSGDTAYSQQTRGAAGIAATSATGRDKNQVDGEVQVLSTATQSFLATCVNGVCWTVYHGAGSKTLAGPKGPITQMYTNVDQDLVGWPAPPGARSMTPCTCGSSDLYLVTRHADVIPVRRRGDSRGSLLSPRPVSYLKGSSGGPLLCPSGHVVGIFRAAVCTRGVAKAVDFIPVESMETTMRGGGGSGGETVRFQSGGSGGDELILCPLDLGGSGGTGHHHHHH
B3: TVMV-AI-CalmodulinBinder (protein)
chain: SKALLKGVRDFNPISACVCLLENSSDGHSERLFGIGFGPYIIANQHLFRRNNGELTIKTMHGEFKVKNSTQLQMKPVEGRDIIVIKMAKDFPPFPQKLKFRQPTIKDRVCMVSTNFQQKSVSSLVSESSHIVHKEDTSFWQHWITTKDGQCGSPLVSIIDGNILGIHSLTHTTNGSNYFVEFPEKFVATYLDAADGWCKNWKFNADKISWGSFILWEDAPEDFMSGLVPRGVGREYVRFAPRWKKNFIAVSAANRFKKISSSGAL

How the values were obtained:
[1] = target: SH3^pep-EGFP-PDZ^pep
[2] = target: Calmodulin

Protein | HCV protease activity (quenched fluorescent HCV substrate) [1] | TVMV protease activity (degradation of fluorogenic TVMV substrate peptide) [2]
B1 | resulting in reciprocal cleavage of the TVMV and HCV protease cleavage sites, thereby more fully activating both proteases | 
B2 | resulting in reciprocal cleavage of the TVMV and HCV protease cleavage sites, thereby more fully activating both proteases | 
B3 |  | releasing inhibition of the TVMV protease by the autoinhibitor peptide
